Source: IntAct's records for PubMed 25218446

B1: Pre-mRNA-splicing factor CWC26 (Saccharomyces cerevisiae), P46947 (parent)
chain: MALHQYLSETYGPTKPKNKTKKKKKESKSDANSDKTSLIVKERLSTLQQEQEKSGVASFSKFDKQKSKNIWKNLETNELSHAITHPSASSITGNESKNDLKEIRAQEPLVTVADKSKTRKTIYRDAQGHKIQEDSKIDDSSFSRSKYEDEKAAEREQYLKNLNMGDVQKLGINVDAHDKKKNQTASSLTIEDPAITFTHDKERTVKTSLLGRKLYDKPAPENRFAIMPGSRWDGVHRSNGFEEKWFAKQNEINEKKVQSYTLQEDY
partner: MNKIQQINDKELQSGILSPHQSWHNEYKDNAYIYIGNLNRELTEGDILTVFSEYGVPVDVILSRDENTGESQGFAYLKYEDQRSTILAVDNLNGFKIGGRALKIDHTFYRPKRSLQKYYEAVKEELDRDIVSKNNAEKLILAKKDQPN
B2: Pre-mRNA leakage protein 1 (Saccharomyces cerevisiae), Q07930 (parent)
chain: MFHRRKRPYNTRNYGHDDKKFKSQYIDIMPDFSPSGLLELESNNKEGIALKHVEPQDAISPDNYMDMLGLEARDRTMYELVIYRKNDKDKGPWKRYDLNGRSCYLVGRELGHSLDTDLDDRTEIVVADIGIPEETSSKQHCVIQFRNVRGILKCYVMDLDSSNGTCLNNVVIPGARYIELRSGDVLTLSEFEEDNDYELIFMNV
partner: B1 partner

Variants of: B1
Conditions: with ist3_yeast IST3, P40565

Variant	effect of a mutation on the interaction
W232A	disrupting interaction strength
V235A	decreasing interaction strength
F224A	decreasing interaction strength
R237A	disrupting interaction strength

Variants of: B2
Conditions: with ist3_yeast IST3, P40565

Variant	effect of a mutation on the interaction
MFHRRKRPYNTRNYGHDDKKFKSQYIDIMPDFSPSGLAELESNNKEGIALKHVEPQDAISPDNYMDMLGLEARDRTMYELVIYRKNDKDKGPWKRYDLNGRSCYLVGRELGHSLDTDLDDRTEIVVADIGIPEETSSKQHCVIQFRNVRGILKCYVMDLDSSNGTCLNNVVIPGARYIELRSGDVLTLSEFEEDNDYELIFMNV [L38A]	decreasing interaction strength
MFHRRKRPYNTRNYGHDDKKFKSQYIDIMPDASPSGLLELESNNKEGIALKHVEPQDAISPDNYMDMLGLEARDRTMYELVIYRKNDKDKGPWKRYDLNGRSCYLVGRELGHSLDTDLDDRTEIVVADIGIPEETSSKQHCVIQFRNVRGILKCYVMDLDSSNGTCLNNVVIPGARYIELRSGDVLTLSEFEEDNDYELIFMNV [F32A]	disrupting interaction strength
